Measured values from US11622990 (FUDAN UNIVERSITY, dated 2023).
Ends that are not written are not given here. Fluorescein‑5‑maleimide = reacted with thiol of C-terminal Cys

Tests used:
[1] = molecular target: T1, GRP78 on the surface of glioma cell U87 (UniProt P11021 19-654, limits assumed); assay: confocal microscopy of U87 cells, 5 µM labelled peptide, 4 h, 37 °C (uptake)
T1 construct: whole, on cells; also called receptor protein on the cell surface; GRP78 protein

[2] = molecular target: T2, GRP78 on the surface of HUVEC cells; assay: confocal microscopy of HUVEC cells, 5 µM labelled peptide, 4 h, 37 °C (uptake)
T2 construct: also called GRP78 on human umbilical vein endothelial cells
T2 sequence (chain, as listed by the source limits assumed): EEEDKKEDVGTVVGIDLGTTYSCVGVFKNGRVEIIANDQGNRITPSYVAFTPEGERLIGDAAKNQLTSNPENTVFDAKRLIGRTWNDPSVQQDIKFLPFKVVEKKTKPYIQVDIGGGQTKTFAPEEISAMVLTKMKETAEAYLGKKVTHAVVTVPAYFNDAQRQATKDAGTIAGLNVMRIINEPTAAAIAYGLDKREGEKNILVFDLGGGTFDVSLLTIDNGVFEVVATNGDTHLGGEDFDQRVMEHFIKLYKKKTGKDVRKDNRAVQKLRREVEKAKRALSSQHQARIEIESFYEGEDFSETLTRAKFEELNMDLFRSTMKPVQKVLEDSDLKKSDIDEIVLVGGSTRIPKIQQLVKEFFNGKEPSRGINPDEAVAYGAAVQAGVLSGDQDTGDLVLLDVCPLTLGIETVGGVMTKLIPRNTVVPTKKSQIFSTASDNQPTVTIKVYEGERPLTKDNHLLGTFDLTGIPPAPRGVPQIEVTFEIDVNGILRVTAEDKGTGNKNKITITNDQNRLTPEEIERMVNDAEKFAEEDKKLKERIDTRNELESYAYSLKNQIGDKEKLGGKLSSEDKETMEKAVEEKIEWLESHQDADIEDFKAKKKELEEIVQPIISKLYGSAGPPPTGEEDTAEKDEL

[3] = molecular target: T3, Recombinant human glucose-regulated protein GRP78 (human, UniProt P11021 19-654, limits assumed); assay: SPR (Biacore T200), recombinant human GRP78 coupled to a CM5 chip, peptide injected at 0.3125-20 µM
T3 construct: also called Bip
T3 sequence (P11021 19-654 limits assumed): as the sequence (chain, as listed by the source limits assumed) above

T1 sequence (P11021 19-654 limits assumed): as the sequence (chain, as listed by the source limits assumed) above

Row | binding result [1] | binding result [2] | Kd [3] [nM] | koff [3] [s⁻¹] | Binder
1 | binds | binds |  |  | SNTRVAPC(Fluorescein‑5‑maleimide) (also called Fluorescein-labeled ^LVAP) [LVAP-Fluorescein]
2 |  |  | 2700 | 0.019 | SNTRVAP [LVAP (L-configuration peptide SNTRVAP)]
